In patent publication US20170267762A1 (APOLLOMICS, published 2017):

Assays:
[1] = target: T1, human PD-1 extracellular domain fused with mouse Fc (PD-1-mFc) (human, UniProt Q15116 25-170); assay: blockage ELISA, coated PD-1-mFc, competitor PDL-1-mFc-biotin
T1 construct: extracellular domain; not used because of the label; also called hPD-1-mFc; human PD-1-mouse Fc fusion protein
Procedure: (§1) PD-1-mFc antigen (CrownBio) was suspended in PBS (Hyclone,Cat No:SH30256.01B) buffer (2 ug/ml, 100 ul/ well) and coated on the 96 well plate (costar, Cat No.:9018) 4° C. overnight. Plates were washed 3 times using washing buffer: PBS+0.05% Tween 20(Sigma, Cat No.:P1379). 200 ul of blocking buffer (PBS+1%BSA(Roche, Cat No.:738328)), was added to each well, incubated at 37° C. for 1 hour, and washed 3 times. Various concentrations (suitable dilutions of hybridoma supernatant in PBS) of the anti-PD-1 Abs were added to the wells (100 μl/well) and incubated at 37° C. for 1 hour. […] Secondary antibody (Avidin HRP eBioscience cat No.:E07418-1632, 1:500, 100 ul/well) was added, incubated at 37 ° C. for 0.5 hour, and washed 3 times. TMB (Sigma, Cat No.: T0440, 100 ul/well) was added, and incubated for 3 min at RT. To stop the reaction, 2N H2SO4 (100 ul/well), was added. The colorimetric signals were developed and read at 450 nm using a Auto Plate SpectraMax Plus (Supplier: Molecular Devices; Model: MNR0643; Software: SoftMax Pro v5.4).
(§2) Freestyle 293 cells (200 mL at 10⁶/mL) were transfected with 100 μg of each of the chimeric heavy and light chain expression plasmids and cultured for 6 days. The chimeric antibody in the supernatant was then purified with Protein-G column (GE healthcare).

[2] = target: T2, human PD-1 on cells (293T cells transfected with human PD-1) (human, UniProt Q15116 25-288); assay: FACS binding to 293T cells expressing human PD-1, MFI
T2 construct: whole, on cells; Also used as the target for the functional rows, where PD-1 stands on human T cells
T2 sequence (Q15116 25-288): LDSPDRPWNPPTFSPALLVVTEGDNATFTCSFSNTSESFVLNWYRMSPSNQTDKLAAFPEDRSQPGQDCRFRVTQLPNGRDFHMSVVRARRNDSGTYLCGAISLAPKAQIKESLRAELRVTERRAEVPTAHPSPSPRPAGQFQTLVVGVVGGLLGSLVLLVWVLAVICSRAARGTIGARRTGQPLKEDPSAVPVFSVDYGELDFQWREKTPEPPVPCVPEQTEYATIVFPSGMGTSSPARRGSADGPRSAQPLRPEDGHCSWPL
Procedure: (§3) The cells were incubated with the indicated antibody (20 ug/ml with the dilution of ⅕) at 4° C. for 1 h. Cells were washed three times with FACS buffer. A secondary antibody (PE Goat anti-mouse: 1:200; PE mouse anti-human: 1:10) was added to the cells at 100 ul/well, and incubated at 4° C. for 40min. Cells were washed three times with FACS buffer and analyzed by FACS Array.

[3] = target: T3, human PD-1 extracellular domain fused with human Fc tag (hPD-1-hFc) (human); assay: ELISA on coated PD1-hFc
T3 construct: also called human PD-1-hFc
T3 sequence (chain, as listed by the source limits assumed): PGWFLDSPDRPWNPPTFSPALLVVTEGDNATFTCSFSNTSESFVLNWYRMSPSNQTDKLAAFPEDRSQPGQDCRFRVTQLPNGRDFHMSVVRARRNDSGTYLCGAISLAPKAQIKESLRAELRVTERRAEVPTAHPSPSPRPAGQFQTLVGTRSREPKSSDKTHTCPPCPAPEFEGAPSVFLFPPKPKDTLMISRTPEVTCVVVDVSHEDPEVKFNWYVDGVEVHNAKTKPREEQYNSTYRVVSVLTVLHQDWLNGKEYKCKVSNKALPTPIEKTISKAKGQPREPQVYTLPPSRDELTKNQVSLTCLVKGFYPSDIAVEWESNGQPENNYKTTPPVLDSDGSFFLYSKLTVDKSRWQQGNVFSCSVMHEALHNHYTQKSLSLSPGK
Procedure: (§4) ELISA binding analysis was conducted based on human PD-1-hFc Protein. 96-well plates (Costar, Cat No:9018) were coated with 100 μL of 2 μg/ml PD1-hFc (CrownBio) in coating buffer (PBS, Hyclone, Cat No:SH30256.01B) overnight at 4° C. The wells were aspirated and non-specific binding sites were blocked by adding 200 μL of blocking buffer with 1% (w/v) of bovine serum albumin (BSA, Roche, Cat No: 738328) and incubating for 1 hour at 37° C. After the plates are washed three times with wash buffer (PBS with 0.05%(v/v) Tween20 (Sigma, Cat No:P1379), 100 μL/well of a suitable dilutions of hybridoma supernatant in blocking buffer were added and incubated at room temperature for 1 hour. The plates were washed and incubated with 100 μL/well of Goat anti-Mouse IgG (H+L) (Thermo, Cat No: 31432) in blocking buffer for 60 min. After the plates were washed, 100 μL/well of substrate solution (TMB(eBioscience, Cat No:00-4201-56) was added and the plates were incubated for 2min at room temperature. 100 μL/well of stop solution (2N H2SO4) was added to stop the reaction. The colorimetric signals were developed and read at 450 nm using a Auto Plate SpectraMax Plus (Supplier: Molecular Devices; Model: MNR0643; Software: SoftMax Pro v5.4).
as §2

[4] = target: T3, human PD-1 extracellular domain fused …; assay: ELISA binding to plate-bound PD-1, OD450 (methods similar to Example 2: plate coated with PD1-hFc)
Procedure: as §4

[5] = target: T2, human PD-1 on cells (293T cells …); assay: FACS blockage on hPD-1-293T cells, competitor biotin PD-L1
Procedure: Various concentrations of the testing hybridoma antibodies were added to the cell suspension and incubated at 4° C. for 60 minutes in 96 well plates. […] Plates were washed 3 times, and mouse anti-biotin PE antibody (Biolgend, cat# 409004) was added. Flow cytometric analyses were performed using a FACS Array.
as §2

[6] = target: T2, human PD-1 on cells (293T cells …); assay: FACS on hPD-1-293T cells
Procedure: as §3, §2

[7] = target: T1, human PD-1 extracellular domain fused …; assay: ELISA ligand blockage: biotinylated PD-L1-mFc binding to plate-bound PD-1, OD450 (methods similar to Example 2: PD-1-mFc coated)
Procedure: as §1

T1 sequence (Q15116 25-170): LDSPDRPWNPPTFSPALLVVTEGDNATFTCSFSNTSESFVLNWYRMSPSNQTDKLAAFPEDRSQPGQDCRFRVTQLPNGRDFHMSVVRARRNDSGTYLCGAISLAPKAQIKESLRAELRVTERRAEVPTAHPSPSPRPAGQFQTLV

| Binder | IC50 [1] | EC50 [2] | EC50 [3] | EC50 [4] | IC50 [5] | EC50 [6] | IC50 [7] |
| --- | --- | --- | --- | --- | --- | --- | --- |
| chimeric 13F1-hIgG4 (antibody, V domains shown, Full chimeric chains; also called 13F1-chimeric) VH: DVQLQESGPGLVKPSQSLSLTCTVTGYSITSDYAWNWIRQFPGNQLEWMAYISYSGYTSYNPSLKSRISITRDTSKNQFFLQLNSVTTEDTATYYCARSLDYDYGTMDYWGQGTSVTVSS VL: QIVLSQSPAILSASPGEKVTMTCRANSSVSSMHWYQQKPGSSPEPWIYAISNLAFGVPTRFSGSGSGTSYSLTISRVEAEDAATYFCQQWSSRPPTFGGGTKLEIKR | 0.856 µg/mL | 0.0815 µg/mL | 0.0587 µg/mL | 0.0456 µg/mL | 0.0521 µg/mL | 0.113 µg/mL | 0.878 µg/mL |
| chimeric 14A6-hIgG4 (antibody, V domains shown, Mouse variable regions with human IgG4 constant region) VH: DVQLQESGPGLVKPSQSLSLTCTVTGYSITSDYAWNWIRQFPGNQLEWMAYISYSGYTSYNPSLKSRISITRDTSRNQFFLQLNSVTTEDTATYYCARSLDYDYGTMDYWGQGTSVTVSS VL: QIVLSQSPAILSASPGEKVTMTCRANSSVSSMHWYQQKPGSSPEPWIYAISNLAFGVPARFSGSGSGTSYSLTISRVEAEDAATYFCQQWNSRPPTFGGGTKLEIKR | 0.823 µg/mL |  | 0.0646 µg/mL |  | 0.0614 µg/mL | 0.103 µg/mL |  |
| chimeric 10D1-hIgG4 (antibody, V domains shown, Mouse variable regions with human IgG4 constant region) VH: EVKLVESGGGLVKPGGSLKLSCAASGFTFSSYGMSWLRQTPEKRLEWVATMSGGGRDIYYPDSMKGRFTISRDNAKNNLYLQMSSLRSEDTALYYCARQYYDDWFAYWGQGTLVTVSA VL: DIVLTQTPATLSVTPGDSVSLSCRASQSISNNLHWYQQKSHESPRLLIKYASQSISGIPSRFSGSGSGTDFTLNINSVETEDFGMYFCQQSNSWPLTFGAGTKLELKR | 1.03 µg/mL |  | 0.0588 µg/mL |  | 0.0403 µg/mL | 0.219 µg/mL |  |
| chimeric 4C10-hIgG4 (antibody, V domains shown, Mouse variable regions with human IgG4 constant region) VH: QVQLKQSGPGLVQPSQNLSVTCTVSGFSLTTYGVHWVRQSPGKGLEWLGVIWSGGSTDYNAAFISRLTISKDNARSQVFFKMNSLQVNDTAMYYCAREKSVYGNYVGAMDYWGQGTSVTVSS VL: SIVMTQTPKFLLVSAGDRVTITCKASQSVSDDVAWYQQKPGQSPKLLIYYAFNRYTGVPDRFTGSGYGTDFTFTISTVQSEDLAVYFCQQDYRSPWTFGGGTKLEIKR | 0.978 µg/mL |  | 0.0946 µg/mL |  | 0.129 µg/mL | 0.221 µg/mL |  |
| chimeric 7A4-hIgG4 (antibody, Full chimeric chains) heavy: not shown light: DIVLTQSPASLAVSLGQRATISCRASESVDNYGYSFMNWFQQKPGQPPKLLIYRASNLESGIPARFSGSGSRTNFTLTINPVEADDVATYFCQQSNADPTFGGGTNLEIKRTVAAPSVFIFPPSDEQLKSGTASVVCLLNNFYPREAKVQWKVDNALQSGNSQESVTEQDSKDSTYSLSSTLTLSKADYEKHKVYACEVTHQGLSSPVTKSFNRGEC | 0.871 µg/mL | 0.137 µg/mL | 0.062 µg/mL | 0.0474 µg/mL | 0.0706 µg/mL | 0.0916 µg/mL | 0.845 µg/mL |
| chimeric 7A4-hIgG1 (antibody, Full chimeric chains; also called 7A4-chimeric-IgG1) heavy: not shown light: DIVLTQSPASLAVSLGQRATISCRASESVDNYGYSFMNWFQQKPGQPPKLLIYRASNLESGIPARFSGSGSRTNFTLTINPVEADDVATYFCQQSNADPTFGGGTNLEIKRTVAAPSVFIFPPSDEQLKSGTASVVCLLNNFYPREAKVQWKVDNALQSGNSQESVTEQDSKDSTYSLSSTLTLSKADYEKHKVYACEVTHQGLSSPVTKSFNRGEC |  | 0.0337 µg/mL |  | 0.0128 µg/mL |  |  | 0.356 µg/mL |
